Measurements taken from paper PMC12399569 (2025).

Target: purified hTMPRSS2 protein (human, UniProt O15393 1-492)
Test: SPR

purified hTMPRSS2 protein, sequence (O15393 whole entry): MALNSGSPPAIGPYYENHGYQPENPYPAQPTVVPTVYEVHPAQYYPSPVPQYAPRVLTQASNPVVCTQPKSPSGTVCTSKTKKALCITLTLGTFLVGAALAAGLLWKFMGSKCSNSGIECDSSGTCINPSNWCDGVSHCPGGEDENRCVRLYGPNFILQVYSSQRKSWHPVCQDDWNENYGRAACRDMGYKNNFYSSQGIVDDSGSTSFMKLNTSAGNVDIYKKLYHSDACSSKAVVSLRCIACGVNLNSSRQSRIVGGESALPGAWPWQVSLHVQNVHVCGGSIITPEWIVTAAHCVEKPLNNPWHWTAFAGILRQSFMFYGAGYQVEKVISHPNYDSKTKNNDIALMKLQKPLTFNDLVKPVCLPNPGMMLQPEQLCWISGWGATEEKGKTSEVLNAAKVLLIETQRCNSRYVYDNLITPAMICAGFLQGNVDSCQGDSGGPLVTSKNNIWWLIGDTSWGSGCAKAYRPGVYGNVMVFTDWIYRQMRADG

B1: Spike protein (recombinant, analyte of the ternary SPR experiment) (natural protein)
chain: CQTTNGLNTSYSVCNGCVGYSENVFAVESGGYIPSDFAFNNWFLLTNTSSVVDGVVRSFQPLLLNCLWSVSGLRFTTGFVYFNGTGRGDCKGFSSDVLSDVIRYNLNFEENLRRGTILFKTSYGVVVFYCTNNTLVSGDAHIPFGTVLGNFYCFVNTTIGNETTSAFVGALPKTVREFVISRTGHFYINGYRYFTLGNVEAVNFNVTTAETTDFCTVALASYADVLVNVSQTSIANIIYCNSVINRLRCDQLSFDVPDGFYSTSPIQSVELPVSIVSLPVYHKHTFIVLYVDFKPQSGGGKCFNCYPAGVNITLANFNETKGPLCVDTSHFTTKYVAVYANVGRWSASINTGNCPFSFGKVNNFVKFGSVCFSLKDIPGGCAMPIVANWAYSKYYTIGSLYVSWSDGDGITGVPQPVEGVSSFMNVTLDKCTKYNIYDVSGVGVIRVSNDTFLNGITYTSTSGNLLGFKDVTKGTIYSITPCNPPDQLVVYQQAVVGAMLSENFTSYGFSNVVELPKFFYASNGTYNCTDAVLTYSSFGVCADGSIIAVQPRNVSYDSVSAIVTANLSIPSNWTTSVQVEYLQITSTPIVVDCSTYVCNGNVRCVELLKQYTSACKTIEDALRNSARLESADVSEMLTFDKKAFTLANVSSFGDYNLSSVIPSLPTSGSRVAGRSAIEDILFSKLVTSGLGTVDADYKKCTKGLSIADLACAQYYNGIMVLPGVADAERMAMYTGSLIGGIALGGLTSAVSIPFSLAIQARLNYVALQTDVLQENQKILAASFNKAMTNIVDAFTGVNDAITQTSQALQTVATALNKIQDVVNQQGNSLNHLTSQLRQNFQAISSSIQAIYDRLDTIQADQQVDRLITGRLAALNVFVSHTLTKYTEVRASRQLAQQKVNECVKSQSKRYGFCGNGTHIFSIVNAAPEGLVFLHTVLLPTQYKDVEAWSGLCVDGTNGYVLRQPNLALYKEGNYYRITSRIMFEPRIPTMADFVQIENCNVTFVNISRSELQTIVPEYIDVNKTLQELSYKLPNYTVPDLVVEQYNQTILNLTSEISTLENKSAELNYTVQKLQTLIDNINSTLVDLKWLNRVETYIKWP
In the case of B1, the Kd is reported as 1360 nM.
